Measured values published in publication PMC4132020.

Target: Sso7d-IN with an 11 glycine linker (Sulfolobus solfataricus chromosomal protein Sso7d fused to the N-terminus of HIV-1 integrase) (Sulfolobus solfataricus | HIV-1)
Test: SEC; Superdex 200 PC 3.2/30, 20 mM HEPES pH 7.5, 20% glycerol, 5 mM DTT, 500 mM NaCl; free protein peak of a scaled-up intasome assembly mixture (with U5-25 DNA, CaCl2, 4 µM ZnCl2) after addition of 500 mM NaCl; position relative to protein standards

Sso7d-IN with an 11 glycine linker (Sulfolobus solfataricus chromosomal protein Sso7d fused to the N-terminus of HIV-1 integrase) (enzyme)
stoichiometry N: 4
